A short description of this series: yeast display, Sf9 membrane polyspecificity reagent, FACS + sequencing; frameworks hold sequencing errors. In short, it runs like this:
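Polyreactivity labels are assigned by the sorting gate from which each nanobody was recovered. The gates were low and high (top ~1%), set on anti-HA fluorescence for expression and streptavidin fluorescence for reagent binding. Before sorting, galactose-induced (36–48 hours) yeast display cells were stained for 1 hour at 4 °C with 10% biotinylated, detergent-solubilized Sf9 membrane reagent.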
For “QVQLVESGGGLVQAGGSLRLSCAASGSTFSPYAMGWYRQAPGKERELVAAITSSGGSTYYADSVKGRFTISRDNAKNTVYLQMNSLKPEDTAVYYCAAEGYYTSTYDLYDYYWGQGTQVTVSS”, the “polyreactivity (PSR sort gate)” value is given as “low polyreactivity”.
Consider “QVQLVESGGGLVQAGGSLRLSCAASGSTFSPYAMGWYRQAPGKERELVANITISGGSTYYADSVKGRFTISRDNAKNTVYLQMNSLKPEDTAVYYCNADSLIRWLFTVVIFDYWGQGTQVTVSS”, for which the “polyreactivity (PSR sort gate)” value was “low polyreactivity”.
With “QVQLVESGGGLVQAGGSLRLSCAASGSTFSPYARGWYRQAPGKERELVANITISGGSTYYADSVKGRFTISRENAKNTVYFQMNSLKPEDTGVYYSNADSLIRWLFTVVIFDYWGQGTQVTVSS” the entry was “low polyreactivity”.
With “QVQLVESGGGLVQAGGSLRLSCAASGSTFSRNAKGWYRQAPGKERELVAAITRSGGSTYYADSVKGRFTISRDNAKNTVYLQMNSLKPEDTAVYYCAVAVPRGVYLYDYWGQGTQVTVSS” the entry was “low polyreactivity”; with “QVQLVESGGGLVQAGGSLRLSCAASGSTFSRNAMGWYRQAPGKERELVAAITRSGGSTYYADSVKGRFTISRDNAKNTVYLQMNSLKPEDTAVYYCAVAVPRGVYLYDYWGQGTQVTVSS”, “low polyreactivity”; with “QVQLVESGGGLVQAGGSLRLSCAASGSTFSRNAMGWYRQAPGKERELVASISWSGARTYYADSVKGRFTISRDNAKNTVYLQMNSLKPEDTAVYYCAKFRSYRGPYNYWGQGTQVTVSS”, “high polyreactivity”.
On to “QVQLVESGGGLVQAGGSLRLSCAASGSTFSRNAMGWYRQAPGKERELVATISRSGRTNYADSVKGRFTISRDNAKNTVYLQMNSLKPEDTAVSYCNAGYRRSYEYWGQGTQVTVSS”, for which the “polyreactivity (PSR sort gate)” value was “low polyreactivity”.
With “QVQLVESGGGLVQAGGSLRLSCAASGSTFSRNAMGWYRQAPGKERELVATISWRGGSTYYADSVKGRFTISRDNAKNTVYLQMNSLKPEDTAVYYCATLHRPAYYYWGQGTQVTVSS” the entry was “high polyreactivity”.
With “QVQLVESGGGLVQAGGSLRLSCAASGSTFSRYAMGWDRQAPGKEMELVAAISSSGGGTYYADSVKGRFTISRDNAKNTVYLQMNSLKPEDTAVSYCAAKRVHGATGYWGQGTQVTVSS” the entry was “high polyreactivity”.
The same measure for “QVQLVESGGGLVQAGGSLRLSCAASGSTFSRYAMGWSRQAPGKERELVAVITGSGGSTYYADSVKGRFTISRDNAKNTVYLQMNSLKPEDTAVYYCNAVYFALSPQYYWAASDYWGQGTQVTVSS”: “high polyreactivity”; for “QVQLVESGGGLVQAGGSLRLSCAASGSTFSRYAMGWYRPAPGKERELVAAISYSGDSTYYADSVKGRFTISRDNAKNTVYLQMNSLKPEDTAVYYCNVYSHYRGYYWGQGTQVTVSS”: “high polyreactivity”; for “QVQLVESGGGLVQAGGSLRLSCAASGSTFSRYAMGWYRQAPGKERELVAAISSRGGSTYYADSVKGRFTISRDNAKNTVYLQMNSLKPEDTAVYYCNALTSYQNHVYPYDYWGQGTQVTVSS”: “high polyreactivity”.
As to “QVQLVESGGGLVQAGGSLRLSCAASGSTFSRYAMGWYRQAPGKERELVAAISSSGGSTYYADSVKGRFTISRDNAKNTVYLQMNSLKPEDTAVYYCAARYYGVTRGYNYWGQGTQVTVSS”, the “polyreactivity (PSR sort gate)” value is given as “high polyreactivity”.
The same measure for “QVQLVESGGGLVQAGGSLRLSCAASGSTFSRYAMGWYRQAPGKERELVAAISWGGNTYYADSVKGRFTISRDNAKNTVYLQMNSLKPEDTAVYYCNRYSKLYNTMDYWGQGPQVTVSS”: “high polyreactivity”; for “QVQLVESGGGLVQAGGSLRLSCAASGSTFSRYAMGWYRQAPGKERELVAAITYRGARTYYADSVKGRFTISRDNAKNTVYLQMNSLKPEDTAVYYCNTVPPPYNFRYGYWGQGTQVTVSS”: “high polyreactivity”.
With “QVQLVESGGGLVQAGGSLRLSCAASGSTFSRYPMGWSRQAPGKERELVAAISWGGNTYYADSVKGRFTISRDNAKNTVYLQMNSLQPEDTAVYYCNRYSKLYNTMDYWGQGTQVTVSS” the entry was “high polyreactivity”; with “QVQLVESGGGLVQAGGSLRLSCAASGSTFSSLIMGWYRQAPGKERELVAAISRSGGRTYYADSVKGRFTISRDNAKNTVYLQMNSLIPEDTAVYYCAADYVSVDRIRYGYCGQGTQVTVSS”, “high polyreactivity”.
Regarding “QVQLVESGGGLVQAGGSLRLSCAASGSTFSSYAMGWYRQAPGKEREIVADINGSGGRTYYADSVKGRFTISRDNAKNTVYLQMNSLKPEDTAVYYCIAYYLQGEYYTEDYWGQGTQVTVSS”, the “polyreactivity (PSR sort gate)” value is reported as “low polyreactivity”.
For “QVQLVESGGGLVQAGGSLRLSCAASGSTFSTNARGWYRQAPGKERELVAAINWSTGSTHYADSVKGRFTISRDNAKNTVYLQMNSLKPEDTAVYFCAAEGPKQYDYWGQGYQVTVSS”, the “polyreactivity (PSR sort gate)” value is recorded as “low polyreactivity”.
The same measure for “QVQLVESGGGLVQAGGSLRLSCAASGSTFSTYAMGWYRQAPGKEREFVAAIRWSGGSTYYADSVKGRFTISRDNAKNTVYLQMNSLKREHTAVYYSAKGIRRWYGGCDYWGQGTKVTVSS”: “low polyreactivity”.
The same measure for “QVQLVESGGGLVQAGGSLRLSCAASGSTFSTYAMGWYRQAPGKERELVATISKRGGSTYYADSVKGRFTISRDNAKNTVYLQMNSLKAEDTAVYYCDARWQWLNGYYYWGQGTQVSVSS”: “high polyreactivity”; for “QVQLVESGGGLVQAGGSLRLSCAASGSTFSVNAMGWYRQAPGKEREFVARITWRGGSTYYADSVKRRFTISRDNAKNTVYLQMNSLKPEDTAVYYCAATLRYWWRSSYEDYYWGQGTQVTVSS”: “low polyreactivity”; for “QVQLVESGGGLVQAGGSLRLSCAASGSTFSVYALGWYRPAPGKERELVAVISSTDDSTYYADSVKGRFTISRDNAKNTVYLQMNSLKPEDTAVYYCAAPDDTTGYDYYYWGQGTQVTVSS”: “low polyreactivity”.
Turning to “QVQLVESGGGLVQAGGSLRLSCAASGSTFSVYAMGWYRQAPGKERELVAAISTSGGSTYYADSVKGRFTISRDNAKNTVYLQMNSLKTEDTAVYYCNAEYSGYIYPYSYPIYYWYDYWGQGTQVTVSS”, the “polyreactivity (PSR sort gate)” value is “high polyreactivity”.
The same measure for “QVQLVESGGGLVQAGGSLRLSCAASGSTFSVYAMGWYRQAPGKERELVAAISWSGGSTYYADSVKGRFTISRDNAKNTVYLQMNSLKPEDTAVYYCNATVTYYRYYAYVRRYYWGQGTQVTVSS”: “high polyreactivity”.
As for “QVQLVESGGGLVQAGGSLRLSCAASGSTFSWYAMGWYRQAPGKERELVAAISYSGGTYYADSVKGRFTISRDNAKNTVYLQMNSLKPEDTAVYYCAALRTRYGYDYWGQGTQVTVSS”, the “polyreactivity (PSR sort gate)” value is given as “high polyreactivity”.
With “QVQLVESGGGLVQAGGSLRLSCAASGSTFSWYVMGWYRQAPGKERELVAAITRGGGSTYYADSVKGRFTISRDNAKNTVYLQMNSLKPEDAAVYYCNADPGFRSGDYGYSSFDYWGQGTQVTVSS” the entry was “low polyreactivity”; with “QVQLVESGGGLVQAGGSLRLSCAASGSTFSYAMGWYRQAPGKERELVAAITIGGRTSYADSVKGRFTISRDNAKNTVYLQMNSLNPEDTAVYYCAADDLPGMDYWGQGSQVTVSS”, “low polyreactivity”.
Regarding “QVQLVESGGGLVQAGGSLRLSCAASGSTFSYMGWYRQAPGKERELVAAISYRGGRTYYADSVKGRFTISRDNAKNTVYLQMNSLTPEDTAVYYCNADGGRTYYSRYDYWGQGTQVTVSS”, the “polyreactivity (PSR sort gate)” value is recorded as “low polyreactivity”.
With “QVQLVESGGGLVQAGGSLRLSCAASGSTFSYNAMGWYRQAPGKERELVAAIDRSVSTNYADSVKGRFTISRDNAKNTVYLQMNSLKPEDTAVYYCNARHPTDDIVIYDYWGQGTQVTVSS” the entry was “low polyreactivity”.
The same measure for “QVQLVESGGGLVQAGGSLRLSCAASGSTFSYNAMGWYRQAPGKERELVAAISRGGITNYADSVKGRFTISRDNAKNTVYLQMNSLKPEDTAVYYCNAGYLGGPSYEYWGQGTLVTVSS”: “low polyreactivity”.
The same measure for “QVQLVESGGGLVQAGGSLRLSCAASGSTFSYNAMGWYRQAPGKERELVAAITSSGSSTYYADSVKGRFTISRYNAKNTVYLQMNSMKPEDTAVYYCNAEVLFVAGQVQRNSGDYWGQGTEVTVSS”: “low polyreactivity”.
As for “QVQLVESGGGLVQAGGSLRLSCAASGSTFSYSTMVWYRQPPGKERELVATISRRGASTYYADSVKGRFTISRDNAKNTVYLQMNSLKPEDTAVYYCAKSYYYGRSATRPEYDYWGQGTQVTVSS”, the “polyreactivity (PSR sort gate)” value is listed as “high polyreactivity”.
Regarding “QVQLVESGGGLVQAGGSLRLSCAASGSTFSYYAMGWYRQAPGKEWEFVAAISRSGGRTYYADSVKGRFTISRDNAKNTVYLQMNSLKPEDTAVYYCATVYYYDFSRTHPWPGDYWGQGTQVTVSS”, the “polyreactivity (PSR sort gate)” value is recorded as “high polyreactivity”.
With “QVQLVESGGGLVQAGGSLRLSCAASGSTFSYYNMGLYIQATGKERELLAAINRRGDSTYADSVKWRFTISRDNAKNTVYLQMNSLKPEDTAVYDCAADASVGVSGMDYWGQGTQVTVSS” the entry was “low polyreactivity”; with “QVQLVESGGGLVQAGGSLRLSCAASGSTFSYYVMGWYRPAPGKERELVAAISGSGGSTYYADSVKGRFTISRDNAKNTVYLQMNSLKPEDTAVYYCDANDGSEYDYWGQGTQVTVSS”, “high polyreactivity”; with “QVQLVESGGGLVQAGGSLRLSCAASGSTFSYYVMGWYRQAPGKERELVAAISGSGGSTYYSDSVKGRFTISRDNAKNTVYLQMNSLKPEDTAVYYCAANDGSEYDYWGQGTQVTVSS”, “high polyreactivity”.
Turning to “QVQLVESGGGLVQAGGSLRLSCAASGSTFTAYAMGWYRQAPGKERELVAAISKRSGGTYYADSVKGRFTISRDNAKNTVYLQMNSLKPEVTAVYYCGQGTQVTVSS”, the “polyreactivity (PSR sort gate)” value is “low polyreactivity”.
With “QVQLVESGGGLVQAGGSLRLSCAASGSTFTAYAMGWYRQAPGKERELVAAITSSGGGTYYADSVKGRFTISRDNAKNPVYLQMNSLKPEDTAVYYCAAVPGYGYYNYSDFDYWGQGTQVTVSS” the entry was “low polyreactivity”.
The same measure for “QVQLVESGGGLVQAGGSLRLSCAASGSTFTDNAMGWYRQAPGKERELVAAITSGSSTNYADSVKGRFTISRDNAKNTVYLQMNSLKPEDTAVYYCATCQEPQYSTGDYWGQGTQVTVSS”: “low polyreactivity”.
With “QVQLVESGGGLVQAGGSLRLSCAASGSTFTDYAMGWYRQAPGKERELVAAITDSGGRTYYADSVKGRFTISRDNAKNTVYLQMNSLKPEDTAVYYCATEDDRWYYWGQGTQVTVSS” the entry was “high polyreactivity”.
